Where two headings read alike, the source gives them in different places.
T1: human VEGF (hVEGF) (human, UniProt P15692 181-395)
T1 construct: also called VEGF-A
T1 sequence: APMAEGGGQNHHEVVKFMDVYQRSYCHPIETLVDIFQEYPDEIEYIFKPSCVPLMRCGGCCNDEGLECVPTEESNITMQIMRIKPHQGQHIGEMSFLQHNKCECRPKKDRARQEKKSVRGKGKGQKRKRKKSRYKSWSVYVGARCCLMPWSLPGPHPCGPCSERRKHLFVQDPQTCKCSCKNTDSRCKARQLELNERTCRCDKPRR


What was measured:
human VEGF (hVEGF) [1] = target: T1, human VEGF (hVEGF); assay: SPR single-cycle;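 on Fold change (relative to G6.31): fab variants injected over hVEGF immobilized on a CM5 chip (Biacore T200), threefold dilution series from 0.02 to 50 nM, kinetics fitted with a 1:1 Langmuir model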
Text: (§1) To determine the binding affinity of selected Fab variants, SPR measurement with a BIACORE® T200 instrument was used. Briefly, series S sensor chip CM5 was activated with 1-ethyl-3-(3-dimethylaminopropyl) carbodiimide (EDC) and N-hydroxysuccinimide (NHS) reagents according to the supplier's instructions, and human VEGF (hVEGF) was coupled to achieve 50-80 response units (RU), then following by blocking un-reacted groups with 1M ethanolamine.
(§2) Three-fold serial dilutions of Fab in HBS-P buffer (0.01 M HEPES pH 7.4, 0.15 M NaCl, 0.005% surfactant P20) from low (0.02 nM) to high (50 nM) were injected (flow rate: 30 μl/min). The binding responses on hVEGF were corrected by subtracting of RU from a blank flow cell. The sensorgram was recorded and subject to reference and buffer subtraction before evaluating by BIACORE® T200 Evaluation Software (version 2.0). Association rates (kₒₙ) and dissociation rates (koff) were calculated using a simple one-to-one Langmuir binding model. The equilibrium dissociation constant (Kd) was calculated as the ratio koff/kₒₙ.

human VEGF (hVEGF) [2] = target: T1, human VEGF (hVEGF); assay: SPR single-cycle; remark: listed apart in the source;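 on Fold change (relative to G6.31): fab variants injected over hVEGF immobilized on a CM5 chip (Biacore T200), threefold dilution series from 0.02 to 50 nM, kinetics fitted with a 1:1 Langmuir model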
Text: as §1, §2

Row | Binder | Fold difference (relative to G6.31) (human VEGF (hVEGF) [1]) | Kd (human VEGF (hVEGF) [1]) | koff (human VEGF (hVEGF) [1]) | kon (human VEGF (hVEGF) [1]) | Fold change (relative to G6.31) (human VEGF (hVEGF) [2]) | Kd (human VEGF (hVEGF) [2]) | koff (human VEGF (hVEGF) [2]) | kon (human VEGF (hVEGF) [2])
1 | G6.31 HC-A60M (Fab, name in Kabat numbering, V domains shown, Fab) VH: EVQLVESGGGLVQPGGSLRLSCAASGFTISDYWIHWVRQAPGKGLEWVAGITPAGGYTYYMDSVKGRFTISADTSKNTAYLQMNSLRAEDTAVYYCARFVFFLPYAMDYWGQGTLVTVSS VL: DIQMTQSPSSLSASVGDRVTITCRASQDVSTAVAWYQQKPGKAPKLLIYSASFLYSGVPSRFSGSGSGTDFTLTISSLQPEDFATYYCQQGYGNPFTFGQGTKVEIK | 0.8 fold | 1.89 nM | 0.000729 s⁻¹ | 386000 M⁻¹ s⁻¹ |  |  |  | 
2 | G6.31 HC-S70H (Fab, name in Kabat numbering, V domains shown, Fab) VH: EVQLVESGGGLVQPGGSLRLSCAASGFTISDYWIHWVRQAPGKGLEWVAGITPAGGYTYYADSVKGRFTIHADTSKNTAYLQMNSLRAEDTAVYYCARFVFFLPYAMDYWGQGTLVTVSS VL: DIQMTQSPSSLSASVGDRVTITCRASQDVSTAVAWYQQKPGKAPKLLIYSASFLYSGVPSRFSGSGSGTDFTLTISSLQPEDFATYYCQQGYGNPFTFGQGTKVEIK | 1.5 fold | 1 nM | 0.00066 s⁻¹ | 658000 M⁻¹ s⁻¹ |  |  |  | 
3 | G6.31 LC-P40E (Fab, V domains shown, Fab) VH: EVQLVESGGGLVQPGGSLRLSCAASGFTISDYWIHWVRQAPGKGLEWVAGITPAGGYTYYADSVKGRFTISADTSKNTAYLQMNSLRAEDTAVYYCARFVFFLPYAMDYWGQGTLVTVSS VL: DIQMTQSPSSLSASVGDRVTITCRASQDVSTAVAWYQQKEGKAPKLLIYSASFLYSGVPSRFSGSGSGTDFTLTISSLQPEDFATYYCQQGYGNPFTFGQGTKVEIK |  |  |  |  | 0.1 fold | 17.9 nM | 0.000541 s⁻¹ | 30300 M⁻¹ s⁻¹
4 | G6.31 LC-Q37A (Fab, V domains shown, Fab) VH: EVQLVESGGGLVQPGGSLRLSCAASGFTISDYWIHWVRQAPGKGLEWVAGITPAGGYTYYADSVKGRFTISADTSKNTAYLQMNSLRAEDTAVYYCARFVFFLPYAMDYWGQGTLVTVSS VL: DIQMTQSPSSLSASVGDRVTITCRASQDVSTAVAWYAQKPGKAPKLLIYSASFLYSGVPSRFSGSGSGTDFTLTISSLQPEDFATYYCQQGYGNPFTFGQGTKVEIK | 1.8 fold | 0.85 nM | 0.000515 s⁻¹ | 603000 M⁻¹ s⁻¹ |  |  |  | 
5 | G6.31 LC-Q27E (Fab, V domains shown, Fab) VH: EVQLVESGGGLVQPGGSLRLSCAASGFTISDYWIHWVRQAPGKGLEWVAGITPAGGYTYYADSVKGRFTISADTSKNTAYLQMNSLRAEDTAVYYCARFVFFLPYAMDYWGQGTLVTVSS VL: DIQMTQSPSSLSASVGDRVTITCRASEDVSTAVAWYQQKPGKAPKLLIYSASFLYSGVPSRFSGSGSGTDFTLTISSLQPEDFATYYCQQGYGNPFTFGQGTKVEIK |  |  |  |  | 0.9 fold | 1.96 nM | 0.00045 s⁻¹ | 230000 M⁻¹ s⁻¹
6 | G6.31 HC-T73N (Fab, name in Kabat numbering, V domains shown, Fab) VH: EVQLVESGGGLVQPGGSLRLSCAASGFTISDYWIHWVRQAPGKGLEWVAGITPAGGYTYYADSVKGRFTISADNSKNTAYLQMNSLRAEDTAVYYCARFVFFLPYAMDYWGQGTLVTVSS VL: DIQMTQSPSSLSASVGDRVTITCRASQDVSTAVAWYQQKPGKAPKLLIYSASFLYSGVPSRFSGSGSGTDFTLTISSLQPEDFATYYCQQGYGNPFTFGQGTKVEIK | 1.8 fold | 0.85 nM | 0.000575 s⁻¹ | 678000 M⁻¹ s⁻¹ |  |  |  | 
7 | G6.31 LC-P59E (Fab, V domains shown, Fab) VH: EVQLVESGGGLVQPGGSLRLSCAASGFTISDYWIHWVRQAPGKGLEWVAGITPAGGYTYYADSVKGRFTISADTSKNTAYLQMNSLRAEDTAVYYCARFVFFLPYAMDYWGQGTLVTVSS VL: DIQMTQSPSSLSASVGDRVTITCRASQDVSTAVAWYQQKPGKAPKLLIYSASFLYSGVESRFSGSGSGTDFTLTISSLQPEDFATYYCQQGYGNPFTFGQGTKVEIK |  |  |  |  | 1.1 fold | 1.56 nM | 0.000444 s⁻¹ | 284000 M⁻¹ s⁻¹
8 | G6.31 LC-S50R (Fab, V domains shown, Fab) VH: EVQLVESGGGLVQPGGSLRLSCAASGFTISDYWIHWVRQAPGKGLEWVAGITPAGGYTYYADSVKGRFTISADTSKNTAYLQMNSLRAEDTAVYYCARFVFFLPYAMDYWGQGTLVTVSS VL: DIQMTQSPSSLSASVGDRVTITCRASQDVSTAVAWYQQKPGKAPKLLIYRASFLYSGVPSRFSGSGSGTDFTLTISSLQPEDFATYYCQQGYGNPFTFGQGTKVEIK |  |  |  |  | 0.9 fold | 1.89 nM | 0.000464 s⁻¹ | 245000 M⁻¹ s⁻¹
9 | G6.31 LC-G93E (Fab, V domains shown, Fab) VH: EVQLVESGGGLVQPGGSLRLSCAASGFTISDYWIHWVRQAPGKGLEWVAGITPAGGYTYYADSVKGRFTISADTSKNTAYLQMNSLRAEDTAVYYCARFVFFLPYAMDYWGQGTLVTVSS VL: DIQMTQSPSSLSASVGDRVTITCRASQDVSTAVAWYQQKPGKAPKLLIYSASFLYSGVPSRFSGSGSGTDFTLTISSLQPEDFATYYCQQGYENPFTFGQGTKVEIK |  |  |  |  | 0.3 fold | 5.98 nM | 0.00149 s⁻¹ | 248000 M⁻¹ s⁻¹
10 | G6.31 HC-Y58Q (Fab, name in Kabat numbering, V domains shown, Fab) VH: EVQLVESGGGLVQPGGSLRLSCAASGFTISDYWIHWVRQAPGKGLEWVAGITPAGGYTQYADSVKGRFTISADTSKNTAYLQMNSLRAEDTAVYYCARFVFFLPYAMDYWGQGTLVTVSS VL: DIQMTQSPSSLSASVGDRVTITCRASQDVSTAVAWYQQKPGKAPKLLIYSASFLYSGVPSRFSGSGSGTDFTLTISSLQPEDFATYYCQQGYGNPFTFGQGTKVEIK | 1.5 fold | 1.02 nM | 0.000358 s⁻¹ | 352000 M⁻¹ s⁻¹ |  |  |  | 
11 | G6.31 HC-I51H (Fab, name in Kabat numbering, V domains shown, Fab) VH: EVQLVESGGGLVQPGGSLRLSCAASGFTISDYWIHWVRQAPGKGLEWVAGHTPAGGYTYYADSVKGRFTISADTSKNTAYLQMNSLRAEDTAVYYCARFVFFLPYAMDYWGQGTLVTVSS VL: DIQMTQSPSSLSASVGDRVTITCRASQDVSTAVAWYQQKPGKAPKLLIYSASFLYSGVPSRFSGSGSGTDFTLTISSLQPEDFATYYCQQGYGNPFTFGQGTKVEIK | 2.5 fold | 0.62 nM | 0.00152 s⁻¹ | 2.48e+06 M⁻¹ s⁻¹ |  |  |  | 
12 | G6.31 HC-Y59T (Fab, name in Kabat numbering, V domains shown, Fab) VH: EVQLVESGGGLVQPGGSLRLSCAASGFTISDYWIHWVRQAPGKGLEWVAGITPAGGYTYTADSVKGRFTISADTSKNTAYLQMNSLRAEDTAVYYCARFVFFLPYAMDYWGQGTLVTVSS VL: DIQMTQSPSSLSASVGDRVTITCRASQDVSTAVAWYQQKPGKAPKLLIYSASFLYSGVPSRFSGSGSGTDFTLTISSLQPEDFATYYCQQGYGNPFTFGQGTKVEIK | 0.6 fold | 2.71 nM | 0.000974 s⁻¹ | 360000 M⁻¹ s⁻¹ |  |  |  | 
13 | G6.31 HC-Q81W (Fab, name in Kabat numbering, V domains shown, Fab) VH: EVQLVESGGGLVQPGGSLRLSCAASGFTISDYWIHWVRQAPGKGLEWVAGITPAGGYTYYADSVKGRFTISADTSKNTAYLWMNSLRAEDTAVYYCARFVFFLPYAMDYWGQGTLVTVSS VL: DIQMTQSPSSLSASVGDRVTITCRASQDVSTAVAWYQQKPGKAPKLLIYSASFLYSGVPSRFSGSGSGTDFTLTISSLQPEDFATYYCQQGYGNPFTFGQGTKVEIK | 3.4 fold | 0.45 nM | 0.000542 s⁻¹ | 1.2e+06 M⁻¹ s⁻¹ |  |  |  | 

Next, values leading:

Row | Fold difference (relative to G6.31) (human VEGF (hVEGF) [1]) | Kd (human VEGF (hVEGF) [1]) | koff (human VEGF (hVEGF) [1]) | kon (human VEGF (hVEGF) [1]) | Fold change (relative to G6.31) (human VEGF (hVEGF) [2]) | Kd (human VEGF (hVEGF) [2]) | koff (human VEGF (hVEGF) [2]) | kon (human VEGF (hVEGF) [2]) | Binder
14 |  |  |  |  | 1.1 fold | 1.53 nM | 0.000446 s⁻¹ | 292000 M⁻¹ s⁻¹ | G6.31 LC-T72R (Fab, V domains shown, Fab) VH: EVQLVESGGGLVQPGGSLRLSCAASGFTISDYWIHWVRQAPGKGLEWVAGITPAGGYTYYADSVKGRFTISADTSKNTAYLQMNSLRAEDTAVYYCARFVFFLPYAMDYWGQGTLVTVSS VL: DIQMTQSPSSLSASVGDRVTITCRASQDVSTAVAWYQQKPGKAPKLLIYSASFLYSGVPSRFSGSGSGTDFRLTISSLQPEDFATYYCQQGYGNPFTFGQGTKVEIK
15 |  |  |  |  | 3 fold | 0.562 nM | 0.000399 s⁻¹ | 711000 M⁻¹ s⁻¹ | G6.31 LC-S77E (Fab, V domains shown, Fab) VH: EVQLVESGGGLVQPGGSLRLSCAASGFTISDYWIHWVRQAPGKGLEWVAGITPAGGYTYYADSVKGRFTISADTSKNTAYLQMNSLRAEDTAVYYCARFVFFLPYAMDYWGQGTLVTVSS VL: DIQMTQSPSSLSASVGDRVTITCRASQDVSTAVAWYQQKPGKAPKLLIYSASFLYSGVPSRFSGSGSGTDFTLTISELQPEDFATYYCQQGYGNPFTFGQGTKVEIK
16 |  |  |  |  | 0.8 fold | 2.07 nM | 0.00103 s⁻¹ | 497000 M⁻¹ s⁻¹ | G6.31 LC-Y92E (Fab, V domains shown, Fab) VH: EVQLVESGGGLVQPGGSLRLSCAASGFTISDYWIHWVRQAPGKGLEWVAGITPAGGYTYYADSVKGRFTISADTSKNTAYLQMNSLRAEDTAVYYCARFVFFLPYAMDYWGQGTLVTVSS VL: DIQMTQSPSSLSASVGDRVTITCRASQDVSTAVAWYQQKPGKAPKLLIYSASFLYSGVPSRFSGSGSGTDFTLTISSLQPEDFATYYCQQGEGNPFTFGQGTKVEIK
17 |  |  |  |  | 0.9 fold | 1.8 nM | 0.000489 s⁻¹ | 271000 M⁻¹ s⁻¹ | G6.31 LC-T31R (Fab, V domains shown, Fab) VH: EVQLVESGGGLVQPGGSLRLSCAASGFTISDYWIHWVRQAPGKGLEWVAGITPAGGYTYYADSVKGRFTISADTSKNTAYLQMNSLRAEDTAVYYCARFVFFLPYAMDYWGQGTLVTVSS VL: DIQMTQSPSSLSASVGDRVTITCRASQDVSRAVAWYQQKPGKAPKLLIYSASFLYSGVPSRFSGSGSGTDFTLTISSLQPEDFATYYCQQGYGNPFTFGQGTKVEIK
18 |  |  |  |  | 0.1 fold | 11.7 nM | 0.000531 s⁻¹ | 45300 M⁻¹ s⁻¹ | G6.31 LC-Y55E (Fab, V domains shown, Fab) VH: EVQLVESGGGLVQPGGSLRLSCAASGFTISDYWIHWVRQAPGKGLEWVAGITPAGGYTYYADSVKGRFTISADTSKNTAYLQMNSLRAEDTAVYYCARFVFFLPYAMDYWGQGTLVTVSS VL: DIQMTQSPSSLSASVGDRVTITCRASQDVSTAVAWYQQKPGKAPKLLIYSASFLESGVPSRFSGSGSGTDFTLTISSLQPEDFATYYCQQGYGNPFTFGQGTKVEIK

— US20210115124A1 (Genentech, published 2021)
